Assay results published in patent US20110151538A1.

Biological target: CBM-Coh (carbohydrate-binding module and type-I cohesin from C. thermocellum CipA) (Clostridium thermocellum)
Experiment: ELISA, plates coated with CBM-Coh; wtDoc-Xyn in 10 mM EDTA against wtDoc-Xyn in 1 mM CaCl2

ΔΔG (in EDTA relative to Ca2+): 2.01 kcal/mol
Substance: wtDoc-Xyn (wild-type C. thermocellum Cel48S dockerin fused to the N-terminus of G. stearothermophilus xylanase T-6, C-terminal His tag)
